Laboratory results taken from the supplement of paper PMC11865577.

Key:
Test in all cases: pull-down binding Z-score (relative to library population); higher = stronger binding
[1] = tested on: TO-3-N3-2 (biotin conjugate); settings: RNA library: Library-2
In short: (§1)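 An RNA library (1 μg) carrying a Cy5 or Cy3 end label was heat-folded in phosphate/NaCl/KCl buffer, then incubated for 60 min at 25 °C with streptavidin beads loaded with 100 pmol of biotin-conjugated small molecule. The beads were washed three times, and bound RNA was released in hot SDS and hybridised to a DNA barcode microarray for 20 h at 55.5 °C. Each binding score was derived by subtracting the signal from beads without compound, averaging the barcoded replicate probes after removing the highest and lowest, and expressing the result as a Z-score relative to the library mean and standard deviation.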

TO-N3 (biotin conjugate) = settings: RNA library: Library-2
In short: as §1

[2] = tested on: G-clamp-N3 (biotin conjugate); settings: RNA library: Library-1 (pre-miRNA loops + repeats)
In short: as §1

[3] = tested on: TO-3-N3 (biotin conjugate); settings: RNA library: Library-2
In short: as §1

[4] = tested on: TO-N3-2 (biotin conjugate); settings: RNA library: Library-2
In short: as §1

Sequence	pull-down binding Z-score [1]	pull-down binding Z-score (TO-N3 (biotin conjugate))	pull-down binding Z-score [2]	pull-down binding Z-score [3]	pull-down binding Z-score [4]
AUUUCUGUGUUCGUUAGGCAACAG [hsa-mir-221]	0.283	1.07	0.12	0.785	0.324
AUUUGCCAUCACCUUUACCUUUAAUGGCAAAA [hsa-mir-548av]	-0.205	-0.188	-0.985	0.0312	-0.906
AUUUUCACUUAAU [hsa-mir-302f]	-0.267	-0.27	0.103	-0.0598	-1.17
CAAAACUCCGUACAUUGCUAUUUUGC [hsa-mir-3064]	0.0575	-0.39	-0.316	-0.563	-0.105
CAAACCGGACCUGAGCGUUUUG [hsa-mir-375]	0.514	1.08	-0.122	1.14	0.74
CAAAGACCAGAACUUAAUGGUCUCUG [hsa-mir-4490]	-0.671	-0.888	0.704	-0.471	-1.15
CAAAUCGACUGUCCAAUGGAUUUG [hsa-mir-133a-2]	-0.146	-0.674	2.07	-0.529	-0.536
CAAAUCGCCUCUUCAAUGGAUUUG [hsa-mir-133a-1]	-0.209	0.0594	1.23	0.308	-0.613
CAACAGUUCUGUAGCGCAAUUGUG [hsa-mir-203a]	0.0351	0.622	0.267	0.0356	1.07
CAACUACUCAGGAGGCUG [hsa-mir-566]	-0.179	0.0834	-0.123	-0.196	0.304
CAAGAGGUGUGAGCCACACACACGCCUGGCCUCCUG [hsa-mir-5699]	0.0475	0.813	1.28	0.771	0.687
CAAGCACACAGGGCCUGGGACUAGCAUG [hsa-mir-4728]	0.256	0.993	-0.152	0.506	1.52
CAAGGAAGAGUCACAGUCUCUUCCUUG [hsa-mir-659]	-0.285	-0.699	-0.00418	-0.474	-0.539
CAAGGGCUCUACUGUCCUUUCAGGAGAGCCCUUG [hsa-mir-4776-2]	-1.02	-0.597	1.19	-0.245	-1.37
CAAGGGCUCUCCUGAAAGGACAGUAGAGCCCUUG [hsa-mir-4776-1]	-0.0552	1.18	0.88	1.31	-0.109
CAAGUAAAAGGAAUUUUCAUUUUCCAGCCCCUAAUUG [hsa-mir-6739]	-0.399	-0.811	-1.23	-0.655	-0.628
CAAGUCCGUCUUCCUGAGAGGUUUG [hsa-mir-133b]	-0.284	-0.0806	-0.401	-0.412	0.836
CAAGUUAUCACUGAGCGACUUC [hsa-mir-4664]	-0.235	-0.349	-1.2	-0.47	-0.296
CAAUAGUAAAAAGACAACCUGUUG [hsa-mir-3133]	0.0706	-0.651	0.427	-0.559	-0.486

Sequence	pull-down binding Z-score [1]	pull-down binding Z-score (TO-N3 (biotin conjugate))	pull-down binding Z-score [2]	pull-down binding Z-score [3]	pull-down binding Z-score [4]
CAAUCACAUGUAAUUAGGUGUGAUUG [hsa-mir-510]	-0.773	-1.09	1.4	-0.789	-1.29
CAAUCAUGUAUAACUAAAUUUGAUUG [hsa-mir-514a-2_514a-3]	-0.513	-1.55	0.276	-1.04	-1.74
CAAUCAUGUAUAAUUAAAUUUGAUUG [hsa-mir-514a-1]	0.0139	-0.511	0.528	-0.112	-1.18
CAAUCAUGUGUAAUUAGAUAUGAUUG [hsa-mir-514b]	-0.732	-1.38	0.559	-1.06	-1.33
CAAUGAAGACAUGAAGACCCAAUGUCUUCAUUG [hsa-mir-4529]	-0.347	-1.17	-0.114	-0.88	-1.1
CAAUUUGAGACCAAU [hsa-mir-1285-2]	0.444	-0.0272	-1.39	-0.0235	0.218
CACAAAUAUGGCUCUUUGUG [hsa-mir-4474]	-0.469	-0.809	-0.738	-0.637	-0.657
CACAAGACUAGGCUUCCCUGUG [hsa-mir-3152]	0.0303	0.13	-0.785	0.212	-0.0548
CACAAUAUUUAGGACAACAAUAUU [hsa-mir-1302-6]	0.226	-0.362	-0.807	-0.282	-0.518
CACACACAAUCACCAUGUG [hsa-mir-3118-1]	-0.386	-0.942	-0.57	-0.577	-1.07
CACACACAAUCACCGUGUG [hsa-mir-3118-2_3118-3_3118-4]	-0.0846	-0.218	0.27	0.0723	-1.24
CACACAUACAUAUAUAUAUGUUUG [hsa-mir-3149]	0.18	0.379	-0.604	0.618	-0.501
CACACGCUUUAUUUGUGCCGUUUG [hsa-mir-758]	-0.318	-0.164	-0.691	-0.0281	-0.655
CACACUGGUGAGGUAACAGGAUCCGGUG [hsa-mir-182]	0.0141	0.38	0.926	0.159	0.691
CACAGAGUAAGCAUCAAUAGCAUUGGCAAGUUGAACUGAGCUGUC [hsa-mir-6895]	-0.0293	0.466	-0.438	-0.393	1.37
CACAGUUCUGG [hsa-mir-761]	-0.473	0.102	0.647	0.292	0.18
CACCAAAGGGUUAAGGGUUUGCUCUGGAG [hsa-mir-4653]	0.0957	0.124	-0.264	-0.018	0.14
CACCAGCCAGGCAUUGCUCAGCCCGUUUCCCUCUGGGGGAGCAAGGAGUGGUGCUGGGUUUGUC [hsa-mir-593]	-0.0489	1.15	-0.156	0.762	1.24
